The record followed here is patent publication US20100166759A1.

As a reminder, the Kd is the concentration at which binding is half-saturated. High values mean weaker binding, low ones tighter binding. In general, koff refers to a measure of how fast the partners let go of each other. Low readings indicate slow dissociation, high ones fast dissociation. Broadly, the kon is the rate constant with which the complex forms. Read a low kon as slower complex formation.

The target of the test is MT2 protein (from Sigma) (UniProt P02795). Put plainly: SPR (BIAcoreX), MT2 immobilised on CM5 chip, peptide injected. A general note: SPR reads the build-up and loss of mass on a sensor chip optically.
Consider KKSSCSCSPVGSAK [MTAn peptide], for which the Kd worked out at 367 nM, the koff came to 0.00574 s⁻¹ and the kon was found to be 15700 M⁻¹ s⁻¹.

Take SAGSCKCKESKSTS [MTBcc peptide]: the Kd worked out at 160 nM, the koff was determined as 0.000501 s⁻¹ and the kon is 2830 M⁻¹ s⁻¹.

As for AQGSICKGASDKSS [MTAcc peptide], the Kd came out at 89.5 nM, the koff is 0.0004 s⁻¹ and the kon is 4540 M⁻¹ s⁻¹.
